One molecule from patent publication US20180346555A1 (Regeneron, published 2018) can be followed below.

The target of experiment [1] is T1, natural Bet v 1 (Indoor Biotechnologies, # NA-BV1-1) (Betula verrucosa (Betula pendula), UniProt P15494 2-160, biotin labeled in the IgE blocking ELISA (Tables 12-14); unlabeled in the SPR of Table 18).
T1 construct: Bought natural allergen purified from birch pollen; also called nBet v 1; Biotinylated Bet v 1
T1 chain: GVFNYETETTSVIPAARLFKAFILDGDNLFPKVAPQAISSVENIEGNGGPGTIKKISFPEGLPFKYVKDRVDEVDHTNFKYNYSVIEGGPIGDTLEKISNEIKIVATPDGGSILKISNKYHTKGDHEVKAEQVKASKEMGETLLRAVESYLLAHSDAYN
The experiment can be described thus: blocking ELISA, captured IgE of donor 29718-MW, 1 ug/mL each antibody. A general note: An ELISA detects its analyte on a solid surface through an enzyme-linked reagent.

Experiment [2] has as its target T1, natural Bet v 1 (Indoor …). The experiment can be described thus: blocking ELISA, captured IgE of donor 23939-MH, 1 ug/mL each antibody.
In experiment [3] the target is T1, natural Bet v 1 (Indoor …). Kind of experiment: blocking ELISA, captured IgE of donor 25414-CW, 1 ug/mL each antibody.
For experiment [4], the target named is T1, natural Bet v 1 (Indoor …). Kind of experiment: dose-response blocking ELISA, captured IgE of donor 25609-MS, at 1 ug/mL each antibody.
Experiment [5] concerns the target T1, natural Bet v 1 (Indoor …). The experiment can be described thus: dose-response blocking ELISA, captured IgE of donor 23939-MH, at 1 ug/mL each antibody.
Experiment [6] has as its target T1, natural Bet v 1 (Indoor …). The experiment can be described thus: blocking ELISA, captured IgE of donor 25340-RR, 1 ug/mL each antibody.
Experiment [7] has as its target T1, natural Bet v 1 (Indoor …). Kind of experiment: blocking ELISA, captured IgE of donor 23035-BL, 1 ug/mL each antibody.
Experiment [8] addresses T1, natural Bet v 1 (Indoor …). The experiment can be described thus: blocking ELISA, captured IgE of donor 23658-MD, 1 ug/mL each antibody.
The target of experiment [9] is T1, natural Bet v 1 (Indoor …). Kind of experiment: blocking ELISA, captured IgE of donor 25299-RJ, 1 ug/mL each antibody.
Experiment [10] has as its target T1, natural Bet v 1 (Indoor …). Kind of experiment: blocking ELISA, captured IgE of donor 22627-MN, 1 ug/mL each antibody.
The target in experiment [11] is T1, natural Bet v 1 (Indoor …). The experiment can be described thus: dose-response blocking ELISA, captured IgE of donor 25340-RR, at 1 ug/mL each antibody.
Experiment [12] deals with T1, natural Bet v 1 (Indoor …). The experiment can be described thus: blocking ELISA, captured IgE of donor 25609-MS, 1 ug/mL each antibody.
The target of experiment [13] is T1, natural Bet v 1 (Indoor …). Kind of experiment: blocking ELISA, captured IgE of donor 26532-CC, 1 ug/mL each antibody.

B1: H4H16987P (antibody, human IgG4 S228P, kappa, V domains shown)
VH: EVQLVESGGGLVQPGGSLRLSCAASGFTVSSNSMSWVRQAPGEGLEWVSVIFSGGITYYSDSVKGRFTISRHNSKNTLYLQMNSLRTEDTAVYYCARHSNWNFDAFDIWGQGTMVTVSS
VL: DIQMTQSPSSLSASVGDRVTITCRASQSFDTYLNWYQQKPGKAPNLLIYATSSLQSGVPSRFSGSGSGTDFTLTISSLQPEDFGTYYCQQSYSIPYTFGQGTKLEIKR
notes: human IgG4; also called MAB4
As for B1, the “Percent Blocking” value is 13% in [1]; 16% in experiment [2]; -4% in experiment [3]; 21.6% in experiment [4]; 19.6% in [5]; 15% in [6]. Also, the “Percent Blocking” value in experiment [7] was -46%; in experiment [8] it was 27%; in [9], 9%; in [10], 12%; in [11], 11.1%; in experiment [12] it was 16%. Moreover, the “Percent Blocking” value in experiment [13] was determined as 4%.
